Data from paper PMC10965808, “The alternative coproporphyrinogen III oxidase (CgoN) catalyzes the oxygen-independent conversion of coproporphyrinogen III into coproporphyrin III” (Frontiers in Microbiology, 2024).

B1: YtpQ (CgoN) (Priestia megaterium DSM 319) (protein)
chain: MAKMNSQKMRKLLEERLTGADWSFLFDREKDTLRVEHQETKKGVTISLPGLIAKWEEKKEAALDEMVYYIKEALRVMNDEQQVTGKETRIYPVVRSTSFPDKSNEDVPLIYDEHTAETRIYYALDLGNTYRLLDEKLIRKENLDLSAVREMAKFNLRSLPISHKKDTVAGNDFYFVNQNDGYDASRILNEAFLQDFASSVSGTMAVAVPHQDVLILADIQNETGYDILAQMTMSFFASGRVPITALSFLYENGELEPIFILGKNRSKGRD
notes: full length, 270 residues; codon-adapted synthetic gene in pGEX-6P-1, N-terminal GST tag cut off with PreScission protease; E. coli BL21(DE3); calculated 30,781 Da; monomer (35 kDa by GPC)

Assays:
YtpQ (CgoN) = target: T1, YtpQ (CgoN) (Priestia megaterium, UniProt D5DN20); assay: fluorescence assay, stimulation of activity by added FAD; type: biochemical; conditions: 3 μM FAD; 1 μM enzyme; 10 μM coproporphyrinogen III; anaerobic; pH 7.2; 30°C; no menadione
T1 construct: gene BMD_4814; full length, 270 residues; codon-adapted synthetic gene in pGEX-6P-1, N-terminal GST tag cut off with PreScission protease; E. coli BL21(DE3); calculated 30,781 Da; monomer (35 kDa by GPC)
T1 sequence (D5DN20 1-270): B1 chain

purified protein = substrate: Cc1c2[nH]c(c1CCC(=O)O)Cc1[nH]c(c(CCC(=O)O)c1C)Cc1[nH]c(c(CCC(=O)O)c1C)Cc1[nH]c(c(C)c1CCC(=O)O)C2; assay: purified protein; type: biochemical, Priestia megaterium; conditions: anaerobic, 3 μM FAD, 5 μM menadione as electron acceptor, 1 μM enzyme, 1-20 μM substrate, HEPES pH 7.2, 0.02% Tween 80, 30°C

Row | Molecule | fluorescence assay, stimulation of activity by added FAD (YtpQ (CgoN)) | Km (purified protein) | kcat (purified protein)
1 | Cc1cc2nc3c(=O)[nH]c(=O)nc-3n(C[C@H](O)[C@H](O)[C@H](O)COP(=O)(O)OP(=O)(O)OC[C@H]3O[C@@H](n4cnc5c(N)ncnc54)[C@H](O)[C@@H]3O)c2cc1C [FAD] | FAD was identified as the electron-transferring cofactor of YtpQ |  | 
2 | B1 |  | 3.95 µM | 0.0105 s⁻¹
